Patent US20210095032A1 (SALUBRIS CHENGDU BIOTECH, published 2021)
Like-named read-outs stand apart in the source and are kept apart here.

Tests used:
[1] = molecular target: T1, biotin-labeled human PD-1 Fc protein (human, biotin-labeled (site not stated)); test: capture ELISA, antibody captured on plate, biotin-labeled human PD-1 Fc in solution
T1 construct: also called PD-1-Fc-biotin
Experimental: (§1) Plates were washed 4 times with wash buffer (PBS+0.05% Tween-20, PBST) and then blocked with 200 μl/well blocking buffer (5% w/v non-fatty milk in PBST) for 2 hours at 37° C. […] After a final wash, plates were incubated with 100 μl/well ELISA substrate TMB (Innoreagents). The reaction was stopped in 15 minutes at 25° C. with 50 μl/well 1M H₂SO₄, and the absorbance was read at 450 nm. Data were analyzed using Graphpad Prism software and EC₅₀ values were reported.

[2] = molecular target: T1, biotin-labeled human PD-1 Fc protein; test: as above; remark: listed apart in the source
Experimental: as §1

[3] = molecular target: T1, biotin-labeled human PD-1 Fc protein; test: as above; remark: listed apart in the source
Experimental: as §1

[4] = molecular target: T1, biotin-labeled human PD-1 Fc protein; test: as above; remark: listed apart in the source
Experimental: as §1

[5] = molecular target: T1, biotin-labeled human PD-1 Fc protein; test: as above; remark: listed apart in the source
Experimental: as §1

[6] = molecular target: T1, biotin-labeled human PD-1 Fc protein; test: as above; remark: listed apart in the source
Experimental: as §1

[7] = molecular target: T1, biotin-labeled human PD-1 Fc protein; test: as above; remark: listed apart in the source
Experimental: as §1

[8] = molecular target: T1, biotin-labeled human PD-1 Fc protein; test: competition ELISA, antibody + biotin human PD-1 Fc on coated Nivolumab (competitor Nivolumab)
Experimental: (§2) The next day, plates were washed with wash buffer, and blocked with 5% non-fatty milk in PBST for 2 hours at 37° C. […] Plates were finally washed using wash buffer. TMB was added and the reaction was stopped using 1M H₂SO₄, and the absorbance was read at 450 nm. Data were analyzed using Graphpad Prism software and IC₅₀ values were reported.

[9] = molecular target: T1, biotin-labeled human PD-1 Fc protein; test: competition ELISA, antibody + biotin human PD-1-Fc on coated human PD-L1-Fc (competitor PD-L1-Fc)
Experimental: (§3) The next day, plates were washed with wash buffer (PBS+0.05% Tween-20, PBST), and blocked with 5% non-fatty milk in PBST for 2 hours at 37° C. Plates were then washed again using wash buffer.
(§4) After incubation at 37° C. for 40 minutes, plates were washed for 4 times using wash buffer. […] Plates were washed again using wash buffer. Finally, TMB was added and the reaction was stopped using 1M H₂SO₄, and the absorbance was read at 450 nm. Data were analyzed using Graphpad Prism software and IC₅₀ values were reported.

[10] = molecular target: T2, human PD-1 on PD-1 Effector Cell Line (Genscript, GS-J2/PD-1) (human, UniProt Q15116 25-288); test: cell-based or functional assay
[11] = molecular target: T3, recombinant human PD-1-his (Sino biological, #10377-H08H) (human, UniProt Q15116 25-167); test: SPR (Biacore), antibody captured, human PD-1-his flowed
T3 construct: Bought protein; also called Human PD-1-his protein; not shown: his tag
From the text: (§5) Briefly, goat anti-mouse IgG (GE healthcare, Cat #BR100839, Human Antibody Capture Kit) was covalently linked to a CMS chip (carboxy methyl dextran coated chip) via primary amines, using a standard amine coupling kit (GE healthcare, Pittsburgh, Pa., USA) provided by Biacore. Un-reacted moieties on the biosensor surface were blocked with ethanolamine. […] Then, recombinant human PD-1-his (Sino biological, #10377-H08H) or cynomolgus monkey PD-1-his protein (Acro biosystems, #PD-1-05223) in HBS EP buffer (provided by Biacore) was flowed onto the chip at a flow rate of 30 μL/min. The antigen-antibody association kinetics was followed for 2 minutes and the dissociation kinetics was followed for 10 minutes. The association and dissociation curves were fit to a 1:1 Langmuir binding model using BIA evaluation software.

[12] = molecular target: T4, cynomolgus monkey PD-1-his protein (Acro biosystems, #PD-1-05223) (cynomolgus monkey, UniProt B0LAJ3 25-170); test: SPR (Biacore), antibody captured, cynomolgus PD-1-his flowed
T4 construct: Bought protein; also called Cynomolgus PD-1; Cynomolgus PD1
From the text: as §5

[13] = molecular target: T1, biotin-labeled human PD-1 Fc protein; test: competition ELISA, antibody + biotin human PD-1 Fc on coated Nivolumab (competitor Nivolumab); remark: listed apart in the source
Experimental: as §2

[14] = molecular target: T2, human PD-1 on PD-1 Effector Cell Line …; test: cell-based or functional assay; remark: listed apart in the source
[15] = molecular target: T2, human PD-1 on PD-1 Effector Cell Line …; test: cell-based or functional assay; remark: listed apart in the source
[16] = molecular target: T3, recombinant human PD-1-his (Sino …); test: SPR (Biacore T200), antibody captured, PD-1-his flowed, 1:1 Langmuir fit
From the text: as §5

[17] = molecular target: T4, cynomolgus monkey PD-1-his protein …; test: as above
From the text: as §5

[18] = molecular target: T1, biotin-labeled human PD-1 Fc protein; test: capture ELISA, antibody captured on plate, biotin-labeled human PD-1 Fc in solution; remark: listed apart in the source
Experimental: as §1

[19] = molecular target: T1, biotin-labeled human PD-1 Fc protein; test: competition ELISA, antibody + biotin human PD-1 Fc on coated Nivolumab (competitor Nivolumab); remark: listed apart in the source
Experimental: as §2

[20] = molecular target: T1, biotin-labeled human PD-1 Fc protein; test: competition ELISA, antibody + biotin human PD-1-Fc on coated human PD-L1-Fc (competitor PD-L1-Fc); remark: listed apart in the source
Experimental: as §3, §4

[21] = molecular target: T1, biotin-labeled human PD-1 Fc protein; test: as above; remark: listed apart in the source
Experimental: as §3, §4

| Binder | EC50 [1] [nM] | EC50 [2] [ng/mL] | EC50 [3] [ng/mL] | EC50 [4] [ng/mL] | EC50 [5] [ng/mL] | EC50 [6] [ng/mL] | EC50 [7] [nM] | IC50 [8] [nM] | IC50 [9] [nM] | Cell-based functional assay (EC50, nM) [10] [nM] | Kd [11] [nM] | Kd [12] [nM] | IC50 [13] [nM] | Cell-based functional reporter assay (IC50, nM) [15] [nM] | EC50 [18] [nM] | IC50 [19] [nM] | IC50 [21] [nM] | other results |
| --- | --- | --- | --- | --- | --- | --- | --- | --- | --- | --- | --- | --- | --- | --- | --- | --- | --- | --- |
| Nivolumab (OPDIVO®) (antibody, V domains shown) VH: QVQLVESGGGVVQPGRSLRLDCKASGITFSNSGMHWVRQAPGKGLEWVAVIWYDGSKRYYADSVKGRFTISRDNSKNTLFLQMNSLRAEDTAVYYCATNDDYWGQGTLVTVSS VL: EIVLTQSPATLSLSPGERATLSCRASQSVSSYLAWYQQKPGQAPRLLIYDASNRATGIPARFSGSGSGTDFTLTISSLEPEDFAVYYCQQSSNWPRTFGQGTKVEIK | 0.21 | 0.27 | 0.365 | 1.37 | 0.351 | 0.268 | 0.45 | 3.79 | 0.42 |  |  |  |  |  |  |  |  |  |
| huD2A4-V5 (antibody, human IgG1, kappa, Humanized D2A4, human IgG1/kappa) heavy: not shown light: DIQMTQSPSSVSASVGDRVTITCLASQTIGTWLAWYQQKPGKSPKLLIYAATSLADGVPSRFSGSGSGTDFTLTISSLQPEDFATYYCQQVSSIPWTFGGGTKVEIKRTVAAPSVFIFPPSDEQLKSGTASVVCLLNNFYPREAKVQWKVDNALQSGNSQESVTEQDSKDSTYSLSSTLTLSKADYEKHKVYACEVTHQGLSSPVTKSFNRGEC |  |  |  |  |  | 0.773 |  |  |  |  |  |  |  |  |  |  |  |  |
| huD2A4-V6 (antibody, human IgG1, kappa, V domains shown, Humanized D2A4, human IgG1/kappa) VH: EVQLVESGGGLVQPGGSLRLSCAASGFTFSSYTMSWVRQAPGKGLEWVSTISGGGSNTYYPDSVKGRFTISRDNSKNTLYLQMNSLRAEDTAVYYCARQAFYSNYWYFDVWGKGTTVTVSS VL: DIQMTQSPSSVSASVGDRVTITCLASQTIGTWLAWYQQKPGKAPKLLIYAATSLADGVPSRFSGSGSGTDFTLTISSLQPEDFATYYCQQVSSIPWTFGGGTKVEIKR |  |  |  |  |  | 0.999 | 0.27 |  | 1.69 | 7.6 | 3.06 | 6.43 | 0.49 |  |  |  |  |  |
| huD2H3-V14 (antibody, human IgG1, kappa, V domains shown, Humanized D2H3, human IgG1/kappa) VH: EVQLVQSGAEVKKPGSSVKVSCKASGYTFTNYWMHWVRQAPGQGLEWMGAIFPRNSETNYNQKFKARVTITADESTSTAYMELSSLRSEDTAVYYCTRNRYGLDYWGQGTLVTVSS VL: DIVMTQSPDSLAVSLGERATINCRASESVSLHGTRLMHWYQQKPGQPPKLLIYLGSNLESGVPDRFSGSGSGTDFTLTISSLQAEDVAVYYCQQSIEDPWTFGQGTKLEIKR |  |  |  | 0.531 |  |  | 0.17 |  | 0.68 | 7.11 | 0.308 | 1.5 | 0.18 |  |  |  |  |  |
| mouse anti-PD-1 monoclonal antibody D2H3 (antibody, V domains shown, Mouse antibody purified from a hybridoma; also called Mouse D2H3; mouse D2H3) VH: EVQLQQSGTVLARPGASVKMSCKSSGYTFTNYWMHWVKQRPGQGLEWIGAIFPRNSETNYNQKFKAKAKLTAVTSASTAYMEVSSLTSEDSAVYFCTRNRYGLDYWGQGTSVTVSS VL: DIVLTQSPGFLAVSLGQRATISCRASESVSLHGTRLMHWYHQKPGQPPKLLISLGSNLESGVPARFSGSGSETDFTLNIHPVEEEDAATYFCQQSIEDPWTFGGGTKLEIK | 0.15 | 0.18 | 0.229 | 0.388 |  |  | 0.17 | 0.76 | 0.89 | 8.48 | 0.373 | 1.46 | 0.21 | 8.48 | 0.17 | 0.21 | 0.89 | Reporter Activation (EC50, nM), human PD-1 cell (NFAT-luc)/human PD-L1 cell [14]: 3.02 nM; Kd [16]: 0.373 nM; koff [16]: 0.000122 s⁻¹; kon [16]: 326000 M⁻¹ s⁻¹; Kd [17]: 1.46 nM; koff [17]: 0.000308 s⁻¹; kon [17]: 211000 M⁻¹ s⁻¹; IC50 [20]: 0.19 nM |
| chimeric D2H3 antibody (antibody, human IgG1, kappa, V domains shown, Mouse variable domains cloned in frame to human IgG1 and kappa constant regions; also called chD2H3) VH: EVQLQQSGTVLARPGASVKMSCKSSGYTFTNYWMHWVKQRPGQGLEWIGAIFPRNSETNYNQKFKAKAKLTAVTSASTAYMEVSSLTSEDSAVYFCTRNRYGLDYWGQGTSVTVSS VL: DIVLTQSPGFLAVSLGQRATISCRASESVSLHGTRLMHWYHQKPGQPPKLLISLGSNLESGVPARFSGSGSETDFTLNIHPVEEEDAATYFCQQSIEDPWTFGGGTKLEIKR |  | 1.04 | 1.51 | 0.31 |  |  | 0.17 |  | 0.74 | 5.36 | 0.441 | 1.78 | 0.19 | 5.36 | 0.17 | 0.19 | 0.74 |  |
| mouse anti-PD-1 monoclonal antibody D2A4 (antibody, V domains shown, Mouse antibody purified from a hybridoma; also called Mouse D2A4; mouse D2A4) VH: EVKLVESGGGLVKPGGSLKLSCAASGFTFSSYTMSWVRQTPAKRLEWVATISGGGSNTYYPDSVKGRFTISRDNARNTLYLQMSSLRSEDTAMYYCARQAFYSNYWYFDVWGAGTTVTVSS VL: DIQMTQSPASQSASLGESVTITCLASQTIGTWLAWYQQTPGKSPQLLIYAATSLADGVPSRFSGSGSGTKFSFKISSLQAEDFASYYCQQVSSIPWTFGGGTKLEIR | 0.19 |  |  |  | 0.281 |  | 0.13 | 2.22 | 1.51 | 6.18 | 2.55 | 6.57 | 0.33 | 6.18 | 0.13 | 0.33 | 1.51 | Reporter Activation (EC50, nM), human PD-1 cell (NFAT-luc)/human PD-L1 cell [14]: 8.1 nM; Kd [16]: 2.55 nM; koff [16]: 0.000401 s⁻¹; kon [16]: 157000 M⁻¹ s⁻¹; Kd [17]: 6.57 nM; koff [17]: 0.000793 s⁻¹; kon [17]: 121000 M⁻¹ s⁻¹; IC50 [20]: 0.17 nM |
| chimeric D2A4 antibody (antibody, human IgG1, kappa, V domains shown, Mouse variable domains cloned in frame to human IgG1 and kappa constant regions; also called chD2A4; ChD2A4) VH: EVKLVESGGGLVKPGGSLKLSCAASGFTFSSYTMSWVRQTPAKRLEWVATISGGGSNTYYPDSVKGRFTISRDNARNTLYLQMSSLRSEDTAMYYCARQAFYSNYWYFDVWGAGTTVTVSS VL: DIQMTQSPASQSASLGESVTITCLASQTIGTWLAWYQQTPGKSPQLLIYAATSLADGVPSRFSGSGSGTKFSFKISSLQAEDFASYYCQQVSSIPWTFGGGTKLEIRR |  |  |  |  | 0.681 | 0.773 | 0.24 |  | 1.71 | 9.46 |  |  | 0.35 | 9.46 | 0.24 | 0.35 | 1.71 |  |
